In US20240084276 one finds activity data, which are given here for 1 substance.

What all share (assay): cell_activity
Data set [1] relates to T1, MIT 25-26L.35 (synthetic construct).
T1 sequence: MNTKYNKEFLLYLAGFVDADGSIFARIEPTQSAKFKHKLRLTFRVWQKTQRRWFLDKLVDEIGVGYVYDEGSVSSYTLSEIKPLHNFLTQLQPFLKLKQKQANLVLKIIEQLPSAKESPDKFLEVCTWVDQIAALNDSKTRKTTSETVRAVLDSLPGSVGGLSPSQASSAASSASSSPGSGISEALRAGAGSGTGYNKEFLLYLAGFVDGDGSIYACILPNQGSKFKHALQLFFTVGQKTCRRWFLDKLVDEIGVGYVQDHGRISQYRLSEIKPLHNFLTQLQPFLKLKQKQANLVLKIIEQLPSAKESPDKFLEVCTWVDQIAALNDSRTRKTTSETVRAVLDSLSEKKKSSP
The conditions noted are these: 500 ng mRNA, FlpIn CHO.

Data set [2] concerns T2, MIT 25-26x.48 (synthetic construct).
T2 sequence: T1 sequence with W46H, E70T, S75D, Q259N, H261F, R263S, H276Y
The following applies: 500 ng mRNA, FlpIn CHO.

The test system of data set [3] is T3, MIT 25-26x.91 (synthetic construct).
T3 sequence: T1 sequence with A19S, W46H, E70T, S75D, E80Q, Q259H, R263T
The following applies: 500 ng mRNA, FlpIn CHO; 16% in repeat (FIG. 4).

Positions count from the first letter of the chain named.

Take MIT 25-26 wild-type site (m.3243A): the activity turned out to be 2 % indels in data set [1], 44 % indels in data set [2] and 20 % indels in data set [3].
